{"source": "paper PMC3439491", "about": "“Characterization of an AGAMOUS-like MADS Box Protein, a Probable Constituent of Flowering and Fruit Ripening Regulatory System in Banana”", "binders": {"B1": {"name": "CArG motif 4 (MA-ACS1) (dsDNA)", "DNA 1": "GATCATGCTTTTATTGTTTCTT", "DNA 2": "AAGAAACAATAAAAGCATGATC"}, "B2": {"name": "CArG motif 6 (MA-ACO1) (dsDNA)", "DNA 1": "GAACGCCTATAAATTGCCTGGT", "DNA 2": "ACCAGGCAATTTATAGGCGTTC"}, "B3": {"name": "CArG motif 7 (MA-EXP) (dsDNA)", "DNA 1": "AAGCACGCATATTTGTGCTGCA", "DNA 2": "TGCAGCACAAATATGCGTGCTT"}, "B4": {"name": "CArG motif 8 (MA-LEC) (dsDNA)", "DNA 1": "CTGGTATCTATTTATGAAATCT", "DNA 2": "AGATTTCATAAATAGATACCAG"}, "B5": {"name": "CArG motif 3 (MA-ACS1) (dsDNA)", "DNA 1": "GGGTCAACTATAATTGCCTTCC", "DNA 2": "GGAAGGCAATTATAGTTGACCC"}, "B6": {"name": "CArG motif 2 (MA-ACS1) (dsDNA)", "DNA 1": "ACACCCCATAAATTTGATCTTC", "DNA 2": "GAAGATCAAATTTATGGGGTGT"}, "B7": {"name": "CArG motif 5 (MA-ACO1) (dsDNA)", "DNA 1": "GAGGTTGGCAATTTGTCACTAC", "DNA 2": "GTAGTGACAAATTGCCAACCTC"}, "B8": {"name": "CArG motif 9 (MA-LEC) (dsDNA)", "DNA 1": "ATAAATTCTTAAAAGATCCTAG", "DNA 2": "CTAGGATCTTTTAAGAATTTAT"}, "B9": {"name": "AGAMOUS element 1 CArG-box (A probe) (dsDNA)", "DNA 1": "ACTGAAGCTTTCCATTAATGGGAATGACGCACAATCCCAC", "DNA 2": "GTGGGATTGTGCGTCATTCCCATTAATGGAAAGCTTCAGT"}, "B10": {"name": "AGAMOUS element m1 (Am probe, CArGm) (dsDNA)", "DNA 1": "B9 DNA 1 with T16G, A17C", "DNA 2": "B9 DNA 2 with T24G, A25C"}, "B11": {"name": "CArG motif 1 (MA-SPS) (dsDNA)", "DNA 1": "TTGGATTCTTATATGTCACGAA", "DNA 2": "TTCGTGACATATAAGAATCCAA"}}, "key": {"[1]": {"molecular_target": "T1, MA-MADS5 full length (A) (Musa acuminata (AAA group, Cavendish …, UniProt E9NW24 1-243))", "T1 sequence (E9NW24 entry or part of it)": "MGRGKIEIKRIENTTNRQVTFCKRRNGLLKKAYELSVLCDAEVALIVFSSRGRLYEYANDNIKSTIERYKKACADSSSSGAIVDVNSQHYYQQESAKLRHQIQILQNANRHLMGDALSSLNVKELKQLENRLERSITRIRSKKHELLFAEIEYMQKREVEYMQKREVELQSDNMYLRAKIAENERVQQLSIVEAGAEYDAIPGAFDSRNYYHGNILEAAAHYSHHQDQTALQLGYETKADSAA", "assay": "EMSA; EMSA with 2 ug recombinant protein or 15 ug nuclear extract, buffer by reference to earlier work; circularization pre-incubation: 60 mM KCl, 8 mM HEPES pH 7.9", "conditions": "protein: recombinant, tags: 6xHis (pQE30), chain copies: 2, blunt"}, "[2]": {"molecular_target": "MA-MADS5 E (I+K+C) (Musa acuminata (AAA group, Cavendish …, UniProt E9NW24 61-243))", "sequence (E9NW24 entry or part of it)": "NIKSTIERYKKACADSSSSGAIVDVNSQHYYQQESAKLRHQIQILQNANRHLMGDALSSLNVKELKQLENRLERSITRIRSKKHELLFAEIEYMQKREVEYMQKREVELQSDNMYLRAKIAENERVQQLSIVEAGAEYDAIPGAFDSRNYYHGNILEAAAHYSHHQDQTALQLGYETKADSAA", "assay": "EMSA; EMSA with 2 ug recombinant protein or 15 ug nuclear extract, buffer by reference to earlier work; circularization pre-incubation: 60 mM KCl, 8 mM HEPES pH 7.9", "conditions": "protein: recombinant; tags: 6xHis (pQE30); chain copies: 2; label: 32P; blunt"}, "[3]": {"molecular_target": "MA-MADS5 D (MADS+I+K) (Musa acuminata (AAA group, Cavendish …, UniProt E9NW24 1-183))", "sequence (E9NW24 entry or part of it)": "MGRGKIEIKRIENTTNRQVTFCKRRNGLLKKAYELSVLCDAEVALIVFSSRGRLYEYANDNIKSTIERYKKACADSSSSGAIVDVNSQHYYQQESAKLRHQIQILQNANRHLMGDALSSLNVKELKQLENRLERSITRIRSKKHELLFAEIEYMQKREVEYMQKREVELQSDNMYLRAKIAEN", "assay": "EMSA; EMSA with 2 ug recombinant protein or 15 ug nuclear extract, buffer by reference to earlier work; circularization pre-incubation: 60 mM KCl, 8 mM HEPES pH 7.9", "conditions": "protein: recombinant; tags: 6xHis (pQE30); chain copies: 2; label: 32P; blunt"}, "[4]": {"molecular_target": "MA-MADS5 C (MADS+I) (Musa acuminata (AAA group, Cavendish …, UniProt E9NW24 1-73))", "sequence (E9NW24 entry or part of it)": "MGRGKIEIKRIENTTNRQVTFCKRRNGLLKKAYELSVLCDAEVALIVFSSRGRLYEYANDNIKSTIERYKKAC", "assay": "EMSA; EMSA with 2 ug recombinant protein or 15 ug nuclear extract, buffer by reference to earlier work; circularization pre-incubation: 60 mM KCl, 8 mM HEPES pH 7.9", "conditions": "protein: recombinant; tags: 6xHis (pQE30); chain copies: 2; label: 32P; blunt"}, "[5]": {"molecular_target": "MA-MADS5 F (K+C) (Musa acuminata (AAA group, Cavendish …, UniProt E9NW24 74-243))", "sequence (E9NW24 entry or part of it)": "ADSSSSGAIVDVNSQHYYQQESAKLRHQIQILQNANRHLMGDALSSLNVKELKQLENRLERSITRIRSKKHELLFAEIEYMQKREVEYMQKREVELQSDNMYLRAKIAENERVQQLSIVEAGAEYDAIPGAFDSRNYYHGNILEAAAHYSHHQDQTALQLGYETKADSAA", "assay": "EMSA; EMSA with 2 ug recombinant protein or 15 ug nuclear extract, buffer by reference to earlier work; circularization pre-incubation: 60 mM KCl, 8 mM HEPES pH 7.9", "conditions": "protein: recombinant; tags: 6xHis (pQE30); label: 32P; blunt"}, "[6]": {"molecular_target": "MA-MADS5 G (C-terminal) (Musa acuminata (AAA group, Cavendish …, UniProt E9NW24 184-243))", "sequence (E9NW24 entry or part of it)": "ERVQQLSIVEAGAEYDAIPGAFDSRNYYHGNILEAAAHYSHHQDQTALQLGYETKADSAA", "assay": "EMSA; EMSA with 2 ug recombinant protein or 15 ug nuclear extract, buffer by reference to earlier work; circularization pre-incubation: 60 mM KCl, 8 mM HEPES pH 7.9", "conditions": "protein: recombinant; tags: 6xHis (pQE30); label: 32P; blunt"}, "[7]": {"molecular_target": "MA-MADS5 C (MADS+I);MA-MADS5 D (MADS+I+K) (Musa acuminata (AAA group, Cavendish …, UniProt E9NW24;E9NW24 1-73;1-183, |))", "assay": "EMSA; intermediate-mobility dimer; EMSA with 2 ug recombinant protein or 15 ug nuclear extract, buffer by reference to earlier work; circularization pre-incubation: 60 mM KCl, 8 mM HEPES pH 7.9", "conditions": "protein: recombinant;recombinant; tags: 6xHis (pQE30);6xHis (pQE30); copies: 1;1; label: 32P; blunt"}, "[8]": {"molecular_target": "MA-MADS5 full length (A);MA-MADS5 C (MADS+I) (Musa acuminata (AAA group, Cavendish …, UniProt E9NW24;E9NW24 1-243;1-73, |))", "assay": "EMSA; intermediate-mobility dimer; EMSA with 2 ug recombinant protein or 15 ug nuclear extract, buffer by reference to earlier work; circularization pre-incubation: 60 mM KCl, 8 mM HEPES pH 7.9", "conditions": "protein: recombinant;recombinant; tags: 6xHis (pQE30);6xHis (pQE30); copies: 1;1; label: 32P; blunt"}, "[9]": {"molecular_target": "MA-MADS5 full length (A);MA-MADS5 D (MADS+I+K) (Musa acuminata (AAA group, Cavendish …, UniProt E9NW24;E9NW24 1-243;1-183, |))", "assay": "EMSA; intermediate-mobility dimer; EMSA with 2 ug recombinant protein or 15 ug nuclear extract, buffer by reference to earlier work; circularization pre-incubation: 60 mM KCl, 8 mM HEPES pH 7.9", "conditions": "protein: recombinant;recombinant; tags: 6xHis (pQE30);6xHis (pQE30); copies: 1;1; label: 32P; blunt"}, "[10]": {"molecular_target": "T1, MA-MADS5 full length (A)", "assay": "EMSA; supershifted by anti-MA-MADS5; EMSA with 2 ug recombinant protein or 15 ug nuclear extract, buffer by reference to earlier work; circularization pre-incubation: 60 mM KCl, 8 mM HEPES pH 7.9", "conditions": "protein: recombinant; tags: 6xHis (pQE30); chain copies: 2; label: 32P 5' end; blunt"}}, "note": "Substitutions are numbered along the chain they refer to."}
{"binder": "B1", "values": [{"measurement": "binding result", "setting": "[1]; label: 32P 5' end", "value": "no binding"}]}
{"binder": "B2", "values": [{"measurement": "binding result", "setting": "[1]; label: 32P 5' end", "value": "no binding"}]}
{"binder": "B3", "values": [{"measurement": "binding result", "setting": "[1]; label: 32P 5' end", "value": "binds"}]}
{"binder": "B4", "values": [{"measurement": "binding result", "setting": "[1]; label: 32P 5' end", "value": "binds"}]}
{"binder": "B5", "values": [{"measurement": "binding result", "setting": "[1]; label: 32P 5' end", "value": "no binding"}]}
{"binder": "B6", "values": [{"measurement": "binding result", "setting": "[1]; label: 32P 5' end", "value": "binds"}]}
{"binder": "B7", "values": [{"measurement": "binding result", "setting": "[1]; label: 32P 5' end", "value": "binds"}]}
{"binder": "B8", "values": [{"measurement": "binding result", "setting": "[1]; label: 32P 5' end", "value": "no binding"}]}
{"binder": "B9", "values": [{"measurement": "binding result", "setting": "[1]; label: 32P", "value": "binds"}, {"measurement": "binding result", "setting": "[2]", "value": "no binding"}, {"measurement": "binding result", "setting": "[3]", "value": "binds"}, {"measurement": "binding result", "setting": "[4]", "value": "binds"}, {"measurement": "binding result", "setting": "[5]", "value": "no binding"}, {"measurement": "binding result", "setting": "[6]", "value": "no binding"}, {"measurement": "binding result", "setting": "[7]", "value": "binds"}, {"measurement": "binding result", "setting": "[8]", "value": "binds"}, {"measurement": "binding result", "setting": "[9]", "value": "binds"}]}
{"binder": "B10", "values": [{"measurement": "binding result", "setting": "[1]; label: 32P or unlabeled", "value": "no binding"}]}
{"binder": "B11", "values": [{"measurement": "binding result", "setting": "[10]", "value": "binds"}]}
